Data from IntAct's records for PubMed 29892012.

B1: TBC1 domain family member 22B (Homo sapiens), Q9NU19 (parent)
chain: MAAENSKQFWKRSAKLPGSIQPVYGAQHPPLDPRLTKNFIKERSKVNTVPLKNKKASSFHEFARNTSDAWDIGDDEEEDFSSPSFQTLNSKVALATAAQVLENHSKLRVKPERSQSTTSDVPANYKVIKSSSDAQLSRNSSDTCLRNPLHKQQSLPLRPIIPLVARISDQNASGAPPMTVREKTRLEKFRQLLSSQNTDLDELRKCSWPGVPREVRPITWRLLSGYLPANTERRKLTLQRKREEYFGFIEQYYDSRNEEHHQDTYRQIHIDIPRTNPLIPLFQQPLVQEIFERILFIWAIRHPASGYVQGINDLVTPFFVVFLSEYVEEDVENFDVTNLSQDMLRSIEADSFWCMSKLLDGIQDNYTFAQPGIQKKVKALEELVSRIDEQVHNHFRRYEVEYLQFAFRWMNNLLMRELPLRCTIRLWDTYQSEPEGFSHFHLYVCAAFLIKWRKEILDEEDFQGLLMLLQNLPTIHWGNEEIGLLLAEAYRLKYMFADAPNHYRR
B2: Coiled-coil alpha-helical rod protein 1 (Homo sapiens), Q8TD31 (parent)
chain: MFPPSGSTGLIPPSHFQARPLSTLPRMAPTWLSDIPLVQPPGHQDVSERRLDTQRPQVTMWERDVSSDRQEPGRRGRSWGLEGSQALSQQAEVIVRQLQELRRLEEEVRLLRETSLQQKMRLEAQAMELEALARAEKAGRAEAEGLRAALAGAEVVRKNLEEGSQRELEEVQRLHQEQLSSLTQAHEEALSSLTSKAEGLEKSLSSLETRRAGEAKELAEAQREAELLRKQLSKTQEDLEAQVTLVENLRKYVGEQVPSEVHSQTWELERQKLLETMQHLQEDRDSLHATAELLQVRVQSLTHILALQEEELTRKVQPSDSLEPEFTRKCQSLLNRWREKVFALMVQLKAQELEHSDSVKQLKGQVASLQEKVTSQSQEQAILQRSLQDKAAEVEVERMGAKGLQLELSRAQEARRRWQQQTASAEEQLRLVVNAVSSSQIWLETTMAKVEGAAAQLPSLNNRLSYAVRKVHTIRGLIARKLALAQLRQESCPLPPPVTDVSLELQQLREERNRLDAELQLSARLIQQEVGRAREQGEAERQQLSKVAQQLEQELQQTQESLASLGLQLEVARQGQQESTEEAASLRQELTQQQELYGQALQEKVAEVETRLREQLSDTERRLNEARREHAKAVVSLRQIQRRAAQEKERSQELRRLQEEARKEEGQRLARRLQELERDKNLMLATLQQEGLLSRYKQQRLLTVLPSLLDKKKSVVSSPRPPECSASAPVAAAVPTRESIKGSLSVLLDDLQDLSEAISKEEAVCQGDNLDRCSSSNPQMSS
partner: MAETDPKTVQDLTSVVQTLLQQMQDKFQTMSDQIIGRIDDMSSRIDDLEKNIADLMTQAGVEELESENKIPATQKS
B3: Coiled-coil alpha-helical rod protein 1 (Homo sapiens), Q8TD31 (parent)
chain: B2 chain
partner: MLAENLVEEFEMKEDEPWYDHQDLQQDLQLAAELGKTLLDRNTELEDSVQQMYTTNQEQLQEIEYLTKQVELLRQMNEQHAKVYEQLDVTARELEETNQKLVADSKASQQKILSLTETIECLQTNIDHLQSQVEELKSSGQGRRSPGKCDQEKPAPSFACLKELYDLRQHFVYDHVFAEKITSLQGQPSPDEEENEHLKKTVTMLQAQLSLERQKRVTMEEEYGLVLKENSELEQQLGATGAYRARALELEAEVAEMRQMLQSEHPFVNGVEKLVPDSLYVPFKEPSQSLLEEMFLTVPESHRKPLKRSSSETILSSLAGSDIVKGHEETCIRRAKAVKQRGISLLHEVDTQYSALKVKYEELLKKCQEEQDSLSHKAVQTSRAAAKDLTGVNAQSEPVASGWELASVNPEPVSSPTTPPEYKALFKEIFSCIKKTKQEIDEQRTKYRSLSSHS
B4: Coiled-coil alpha-helical rod protein 1 (Homo sapiens), Q8TD31 (parent)
chain: B2 chain
partner: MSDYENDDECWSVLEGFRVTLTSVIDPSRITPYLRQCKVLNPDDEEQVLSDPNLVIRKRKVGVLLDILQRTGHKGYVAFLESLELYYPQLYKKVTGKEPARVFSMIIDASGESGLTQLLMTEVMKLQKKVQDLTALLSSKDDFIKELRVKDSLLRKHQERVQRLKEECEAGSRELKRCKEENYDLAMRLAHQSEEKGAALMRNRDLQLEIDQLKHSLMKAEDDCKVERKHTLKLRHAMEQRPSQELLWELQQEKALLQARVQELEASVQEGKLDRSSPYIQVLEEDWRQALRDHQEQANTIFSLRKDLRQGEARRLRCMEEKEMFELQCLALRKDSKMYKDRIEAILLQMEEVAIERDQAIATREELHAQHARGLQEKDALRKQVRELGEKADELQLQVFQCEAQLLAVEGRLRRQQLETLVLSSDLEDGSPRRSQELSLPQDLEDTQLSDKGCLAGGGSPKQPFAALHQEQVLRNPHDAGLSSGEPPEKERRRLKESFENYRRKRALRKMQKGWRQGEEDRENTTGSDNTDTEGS
B5: Coiled-coil alpha-helical rod protein 1 (Homo sapiens), Q8TD31 (parent)
chain: B2 chain
partner: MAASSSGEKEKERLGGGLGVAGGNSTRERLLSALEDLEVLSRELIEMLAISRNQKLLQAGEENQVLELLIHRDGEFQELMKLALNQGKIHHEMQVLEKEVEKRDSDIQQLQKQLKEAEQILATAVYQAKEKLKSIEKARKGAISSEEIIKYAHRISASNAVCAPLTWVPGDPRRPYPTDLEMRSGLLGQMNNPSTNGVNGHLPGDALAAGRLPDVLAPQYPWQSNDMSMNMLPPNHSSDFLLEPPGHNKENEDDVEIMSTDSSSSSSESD
B6: Cell division cycle-associated 7-like protein (Homo sapiens), Q96GN5 (parent)
chain: MELATRYQIPKEVADIFNAPSDDEEFVGFRDDVPMETLSSEESCDSFDSLESGKQQDVRFHSKYFTEELRRIFIEDTDSETEDFAGFTQSDLNGKTNPEVMVVESDLSDDGKASLVSEEEEDEEEDKATPRRSRSRRSSIGLRVAFQFPTKKLANKPDKNSSSEQLFSSARLQNEKKTILERKKDCRQVIQREDSTSESEDDSRDESQESSDALLKRTMNIKENKAMLAQLLAELNSMPDFFPVRTPTSASRKKTVRRAFSEGQITRRMNPTRSARPPEKFALENFTVSAAKFAEEFYSFRRRKTIGGKCREYRRRHRISSFRPVEDITEEDLENVAITVRDKIYDKVLGNTCHQCRQKTIDTKTVCRNQGCCGVRGQFCGPCLRNRYGEDVRSALLDPDWVCPPCRGICNCSYCRKRDGRCATGILIHLAKFYGYDNVKEYLESLQKELVEDN
partner: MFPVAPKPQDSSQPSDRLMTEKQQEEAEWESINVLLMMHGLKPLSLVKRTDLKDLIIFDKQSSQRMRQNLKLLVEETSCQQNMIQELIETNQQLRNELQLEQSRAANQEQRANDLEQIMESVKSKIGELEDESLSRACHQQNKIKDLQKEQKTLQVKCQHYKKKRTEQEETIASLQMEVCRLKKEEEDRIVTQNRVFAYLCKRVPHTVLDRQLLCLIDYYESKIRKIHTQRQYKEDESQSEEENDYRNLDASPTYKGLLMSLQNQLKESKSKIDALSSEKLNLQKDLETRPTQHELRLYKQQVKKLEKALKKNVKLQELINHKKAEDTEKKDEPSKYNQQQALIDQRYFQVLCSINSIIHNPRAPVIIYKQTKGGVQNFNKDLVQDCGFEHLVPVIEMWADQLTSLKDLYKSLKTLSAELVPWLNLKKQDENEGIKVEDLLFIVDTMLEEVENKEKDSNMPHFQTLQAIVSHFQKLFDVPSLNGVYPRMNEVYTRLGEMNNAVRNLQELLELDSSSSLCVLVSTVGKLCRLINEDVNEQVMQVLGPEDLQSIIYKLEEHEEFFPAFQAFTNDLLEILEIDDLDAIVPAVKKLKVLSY
B7: TBC1 domain family member 22B (Homo sapiens), Q9NU19 (parent)
chain: B1 chain
partner: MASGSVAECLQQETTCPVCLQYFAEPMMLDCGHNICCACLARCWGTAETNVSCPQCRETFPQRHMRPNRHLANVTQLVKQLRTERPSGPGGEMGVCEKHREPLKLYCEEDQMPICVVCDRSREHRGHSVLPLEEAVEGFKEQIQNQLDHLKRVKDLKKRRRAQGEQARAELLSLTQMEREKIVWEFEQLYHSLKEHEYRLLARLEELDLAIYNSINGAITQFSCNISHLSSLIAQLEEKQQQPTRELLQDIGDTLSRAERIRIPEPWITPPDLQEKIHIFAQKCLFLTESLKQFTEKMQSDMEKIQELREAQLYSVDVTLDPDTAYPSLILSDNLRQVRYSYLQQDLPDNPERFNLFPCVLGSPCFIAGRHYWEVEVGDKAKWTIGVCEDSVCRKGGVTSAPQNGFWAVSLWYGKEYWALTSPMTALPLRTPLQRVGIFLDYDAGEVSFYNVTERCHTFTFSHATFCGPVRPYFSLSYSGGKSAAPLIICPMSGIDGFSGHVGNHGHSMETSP

Variants of: B1
Settings: with fxr2_human FXR2, P51116
fxr2_human FXR2, P51116, sequence (P51116 whole entry): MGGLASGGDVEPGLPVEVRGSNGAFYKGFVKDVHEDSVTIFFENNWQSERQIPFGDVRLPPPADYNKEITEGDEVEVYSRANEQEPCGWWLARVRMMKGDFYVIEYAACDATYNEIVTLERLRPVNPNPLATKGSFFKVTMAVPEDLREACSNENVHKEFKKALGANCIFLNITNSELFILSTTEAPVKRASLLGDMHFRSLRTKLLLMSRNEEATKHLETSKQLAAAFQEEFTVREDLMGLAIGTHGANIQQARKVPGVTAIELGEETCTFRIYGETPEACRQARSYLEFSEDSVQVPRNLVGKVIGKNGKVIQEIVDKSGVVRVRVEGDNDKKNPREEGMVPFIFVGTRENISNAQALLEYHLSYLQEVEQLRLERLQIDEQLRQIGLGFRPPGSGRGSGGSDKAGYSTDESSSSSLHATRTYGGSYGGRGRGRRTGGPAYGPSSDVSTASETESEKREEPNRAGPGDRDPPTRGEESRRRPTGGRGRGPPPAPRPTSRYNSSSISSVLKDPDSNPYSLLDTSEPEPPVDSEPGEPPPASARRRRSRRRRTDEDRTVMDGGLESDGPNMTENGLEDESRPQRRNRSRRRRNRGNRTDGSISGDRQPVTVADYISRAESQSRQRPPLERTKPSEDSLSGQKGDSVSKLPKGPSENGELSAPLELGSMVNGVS

Row | Variant | effect of a mutation on the interaction
1 | A349T | disrupting interaction strength

Variants of: B1
Settings: with ikzf3_human IKZF3, Q9UKT9
ikzf3_human IKZF3, Q9UKT9, sequence (Q9UKT9 whole entry): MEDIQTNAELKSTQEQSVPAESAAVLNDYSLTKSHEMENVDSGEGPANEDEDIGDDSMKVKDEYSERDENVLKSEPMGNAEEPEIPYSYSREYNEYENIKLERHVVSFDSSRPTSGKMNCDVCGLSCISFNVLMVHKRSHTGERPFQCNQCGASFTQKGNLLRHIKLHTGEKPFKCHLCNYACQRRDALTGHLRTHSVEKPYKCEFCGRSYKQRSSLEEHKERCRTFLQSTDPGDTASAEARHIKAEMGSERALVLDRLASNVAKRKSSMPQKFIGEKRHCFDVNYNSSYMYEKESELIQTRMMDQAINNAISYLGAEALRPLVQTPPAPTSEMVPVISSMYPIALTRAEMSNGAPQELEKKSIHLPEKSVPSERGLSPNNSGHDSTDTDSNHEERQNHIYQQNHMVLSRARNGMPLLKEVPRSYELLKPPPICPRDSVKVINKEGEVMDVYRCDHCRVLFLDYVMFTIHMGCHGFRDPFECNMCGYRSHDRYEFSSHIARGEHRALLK

Row | Variant | effect of a mutation on the interaction
2 | A349T | disrupting interaction strength

Variants of: B1
Settings: with tacc3_human TACC3, Q9Y6A5

Row | Variant | effect of a mutation on the interaction
3 | A349T | disrupting interaction strength

Variants of: B1
Settings: with tri23_human TRIM23, P36406
tri23_human TRIM23, P36406, sequence (P36406 whole entry): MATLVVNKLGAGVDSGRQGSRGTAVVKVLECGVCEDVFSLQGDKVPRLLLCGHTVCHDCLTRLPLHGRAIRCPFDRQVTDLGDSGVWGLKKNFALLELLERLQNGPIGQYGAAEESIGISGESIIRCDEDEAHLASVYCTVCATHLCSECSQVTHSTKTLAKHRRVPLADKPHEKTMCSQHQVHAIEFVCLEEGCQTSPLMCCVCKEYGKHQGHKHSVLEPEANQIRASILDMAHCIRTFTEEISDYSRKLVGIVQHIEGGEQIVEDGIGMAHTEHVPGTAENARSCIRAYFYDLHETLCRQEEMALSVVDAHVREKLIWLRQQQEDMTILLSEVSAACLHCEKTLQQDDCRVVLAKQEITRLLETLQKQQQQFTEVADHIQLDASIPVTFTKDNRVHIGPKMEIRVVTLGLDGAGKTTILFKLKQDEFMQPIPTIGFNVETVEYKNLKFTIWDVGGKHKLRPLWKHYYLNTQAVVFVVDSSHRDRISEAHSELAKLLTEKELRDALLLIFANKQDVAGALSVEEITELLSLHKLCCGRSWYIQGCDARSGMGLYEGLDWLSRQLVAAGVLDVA

Row | Variant | effect of a mutation on the interaction
4 | A349T | disrupting interaction strength

Variants of: B1
Settings: with pnma5_human PNMA5, Q96PV4
pnma5_human PNMA5, Q96PV4, sequence (Q96PV4 whole entry): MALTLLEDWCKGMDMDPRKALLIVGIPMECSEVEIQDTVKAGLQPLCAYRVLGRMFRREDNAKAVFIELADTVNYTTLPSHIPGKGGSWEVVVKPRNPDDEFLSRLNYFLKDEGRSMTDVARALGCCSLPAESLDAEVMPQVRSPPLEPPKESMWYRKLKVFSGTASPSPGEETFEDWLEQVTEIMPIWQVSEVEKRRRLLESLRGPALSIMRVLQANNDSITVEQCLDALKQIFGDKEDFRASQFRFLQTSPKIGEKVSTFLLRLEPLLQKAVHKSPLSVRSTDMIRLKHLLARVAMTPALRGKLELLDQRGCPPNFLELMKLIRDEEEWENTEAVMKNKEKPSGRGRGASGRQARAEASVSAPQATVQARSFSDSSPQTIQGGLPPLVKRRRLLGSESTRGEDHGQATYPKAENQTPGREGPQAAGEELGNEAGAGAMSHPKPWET

Row | Variant | effect of a mutation on the interaction
5 | A349T | disrupting interaction strength

Variants of: B2
Settings: with hsbp1_human HSBP1, O75506

Row | Variant | effect of a mutation on the interaction
6 | W337R | disrupting interaction strength

Variants of: B3
Settings: with cdr2_human CDR2, Q01850

Row | Variant | effect of a mutation on the interaction
7 | W337R | disrupting interaction strength

Variants of: B4
Settings: with card9_human CARD9, Q9H257

Row | Variant | effect of a mutation on the interaction
8 | W337R | disrupting interaction strength

Variants of: B5
Settings: with med4_human MED4, Q9NPJ6

Row | Variant | effect of a mutation on the interaction
9 | W337R | with no effect

Variants of: B6
Settings: with cep70_human CEP70, Q8NHQ1

Row | Variant | effect of a mutation on the interaction
10 | R268H | with no effect

Variants of: B7
Settings: with tri27_human TRIM27, P14373

Row | Variant | effect of a mutation on the interaction
11 | A349T | disrupting interaction strength
